This series concerns the molecule itself. As to the kind of experiment: crystal structure.

Residue numbers refer to the chain shown, from its start.

B1: Fluoroacetate dehalogenase (FAcD) wild type (enzyme, Rhodopseudomonas palustris, UniProt Q6NAM1 1-302, looked up)
chain: MPDLADLFPGFGSEWINTSSGRIFARVGGDGPPLLLLHGFPQTHVMWHRVAPKLAERFKVIVADLPGYGWSDMPESDEQHTPYTKRAMAKQLIEAMEQLGHVHFALAGHDRGARVSYRLALDSPGRLSKLAVLDILPTYEYWQRMNRAYALKIYHWSFLAQPAPLPENLLGGDPDFYVKAKLASWTRAGDLSAFDPRAVEHYRIAFADPMRRHVMCEDYRAGAYADFEHDKIDVEAGNKIPVPMLALWGASGIAQSAATPLDVWRKWASDVQGAPIESGHFLPEEAPDQTAEALVRFFSAAP
As to B1, the binding result is “binds”.

B2: Fluoroacetate dehalogenase (FAcD) Ser157Ala (enzyme, Rhodopseudomonas palustris, UniProt Q6NAM1 1-302, looked up)
chain: B1 chain with S157A
As to B2, the binding result is reported as “binds”.

B3: Fluoroacetate dehalogenase (FAcD) Ser157Thr (enzyme, Rhodopseudomonas palustris, UniProt Q6NAM1 1-302, looked up)
chain: B1 chain with S157T
As for B3, the binding result is “binds”.

Values taken from article doi:10.1101/2025.04.29.650001 (bioRxiv, 2025).
